From the nanobody polyreactivity screen of Harvey et al. (2022)

Assay: yeast display, Sf9 membrane polyspecificity reagent, FACS + sequencing; frameworks hold sequencing errors
Method in brief: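 A nanobody's polyreactivity label depends on the gate it was sorted from. Yeast display cells were stained with 10% biotinylated, detergent-solubilized Sf9 membrane reagent for 1 hour at 4 °C, enriched on streptavidin microbeads and sorted by FACS. The low and high (top ~1%) gates were set on anti-HA fluorescence for expression and streptavidin fluorescence for reagent binding.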

Row | Sequence | polyreactivity (PSR sort gate)
1 | QVQLVESGGGLVQAGGSLRLSCAASGSTFWKYVIGWYRQEPGKERELVAAITSRGGSTYADSVKGRFTISRDNAKNTVYLQMNSLKPEDTAVYYCAATKFWYYGYDYWGQGTQVTVSS | low polyreactivity
2 | QDQLVESGGGLVQAGGSLRLSCAASGGIFPVNALGWYRQAPVKERELVATITYDGGNTYYADSVKGRFTISRDNAKKTVYLQMNSLKREDTAVYYCAKDSLSFYGYISYIGYGYDYWGQGTQVTVSS | low polyreactivity
3 | QVQLVESGGGLVQAGGSLRLSCAASGFTFTRNAMGWYRQAPGKERELVAASTWSGGSTYYADSVKGRFTISRDNAKNTVYLQMNSLKPEDTAVYDCAALYRSRYYAGDYWGQGTQVTVSS | high polyreactivity
4 | QVQLVESGGGLVQAGGSLRLSCAASGYTVAFYDMGWYRQAPRKERELVAAISASGGSTYYADSVKGRFTISRDNAKNTVYLQMNSLKPEDTAVYYCAARSKYRGDMDYWGQGTQVTVSS | high polyreactivity
5 | QVQLVESGGGLVQAGGSLRISCAASGLTFGKYAMGWYRQEPGKERELVAAISWSVTSTYYADSVKGRFTISRDNAKNTVYLQMNSLKPEDTAVYYCAAEIIKLAYRVAYYYWGQGTQVTVSS | high polyreactivity
6 | QVQLVESGGGLVQAGGSLRLSCAASGRTFYSNAMGWYRQAPGKERELVATITRRGGSTYYADSVKGRFTISRDNAKNTVYLQMNSLKPEDTAVYYCNAVSSKGNPYYYWGQGTQVTVSS | high polyreactivity
7 | QVQLVESGGGLVQAGGSLRLSCAASGSIFGRYAMGWYRQAPGKERELVAAITGSGGTTYYADSVKGRFTISRDNAKNTVYLQMNSLKPEDTAVYYCAADPQVYYSGRPRYDYWGQGTQVTVSS | high polyreactivity
8 | QVQLVESGGGLVQAGGSLRLSCAASGRIFVYNAMGWYRQAPGKEREFVAAISWDGASTYYADSVKGRFTISRDNAKNTVYLQMNSLKPEDTAVYYCAASYRRKLYNDYWGQGTQVTVSS | low polyreactivity
9 | QVQLVESGGGLVQAGGSLRLSCAASGSPFSSYVMGWYRQAPGTERELVAAISSIGGSTYSADSVKGRFTISRDNAKNTVFLQLNSLKPEDTAVYYCNALYDVWITLHTYTSSDYWGEGTQVTVSS | low polyreactivity
10 | QVQLVESGGGLVQAGGSLRLSCAASGSIFSRYAMGWYRQAPGKERELVAAITSSGGRTYYADSVKGRFTISRDNAKNTVYLQMNSLKPEDTAVYYCAAEYYYIVTYDFGYWGQGTQVTVSS | low polyreactivity
11 | QVQLVESGGGLVQAGGSLRLSCAASGSTFSSYVMGWYRQAPGKERELVAGITRGGRTYYADSVKGRFTISRDNAKNTVYLQMNSLKPEDTAVYYCAKDQGGVHELDYWGQGTQVTVSS | low polyreactivity
12 | QVQLVESGGGLVQAGGSLRLSCAASGSIFGSYAMGWYRQGAGKERELVAGITYDGGSTYYADSVKGRFTISRDNAKNTVYLQMNSLKPEDTAVYYCAAVDIRLEWDFWFQPTYEYWGQGTQVTVSS | low polyreactivity
13 | QVQLVESGGGLVQAGGSLRLSCAASGRIFIYNAMGWYTQAPGKERELVAAINRSGVSTHYADSVKGRFTISRDNAKNSVYLQMNSLKPEDTAVYYCARTVYGARSYDYWGQGTQVTVSS | low polyreactivity
14 | QVQLVESGGGLVQAGGSLRLSCAASGGTFLVNAMGWYRQAPGKERELVATITARVGSTYYADSVKGRFTISRDNAKNTVYLQMNSLKPEDTADYYCAAYPQLWYWDYNYWGQGTQVTVSS | high polyreactivity
15 | QVQLVESRGGLVQAGGSLRLSCAASGFTFSGNARGWYRQAPGKERECVAAISNRSGRTYYADSVKGRFTISRYNAKNTVYLQMNSLKPEDTAVYYCAAESIYTWGIRGDYWGHGTQVTVSS | high polyreactivity
16 | QVQLVESGGGLVQAGGSLRLSCAASGLTFSRYAMGWYRQAPGKERELVAAITSIGGSTYYADSVKGRFTISRDNAKNTVYLQMNSLKPEDTAVYYCRAFFRRDYWGQGTQVTVSS | high polyreactivity
17 | QVQLVESGGGLVQAGGSLRLSCAASGITFLAYAMGWYRQAPGKERELVAGISKSGGNTYYADSVKGRFTISRDNAKNTVYLQMNSLKPEDTAVYYCAARYRLTYFDANYRYGYWGQGTQVTVSS | high polyreactivity
18 | QVQLVESGGGLVQAGGSLRLSCAASGSTFPWNAMGWYRQAPGKERELVAAINYGNGSTYYADSVKGRFTISRDNAKNTVYLQMNSLKPEDTAVYYCNADYTGTRTDSVTPEYEYCGQGTQVTVSS | low polyreactivity
19 | HVQLVESGGGLVQAGGSLRLSCAASVFILSPNTMGWYRQAPGKERELVAAISSDVSTYADSVKGRFTISRDNAKNTVYLQMNSLKPEDTAVYYCNADDFGYASYEYWGQGTQVTVSS | low polyreactivity
20 | QVQLVESGGGLVQAGGSLRLSCAASGRTYPYAMGLYRQAPGKEREFVAAITSSGGSTYYADSVKGRFTISRDNAKNTVYLQMNSLKPEDTAVYYCAAEYYFLEYDYWGQGTQVTVSS | low polyreactivity
21 | QVQLVESGGGLVQAGGILRLSCAASGSIIVYNSMVCYRQAPGKERELVARITGRGGRTYYADSVKGRFTISRDNAKNTVYLQMNSLKPEDTAVYYCAKYGYWGQGTQVTVSS | high polyreactivity
22 | QVQLVESGGGLVQAGGSLRLSCAASGRIFVGYAMVWYRQAPGKERELVAGISRSGDSTYYADSVKGRFTISRDNAKNTVYLQMNSLKPEDTAVYYCAARIIYWGYYYWGQGTQVTVSS | high polyreactivity

Row | Sequence | polyreactivity (PSR sort gate)
23 | QVQLVESGGGLVQAGGSLRLSCAPSGSTFFLYVMGWYRQAPGKEREWVAAITSGGRTYYADSVKGRFTISRDNAKNTVYLQMNSLKREDTAVYYCAADVRRVRVGKYDYWGQGPQVTVSS | high polyreactivity
24 | QVQLVESGGGLVQAGGSLRLSCAASGFIFADYAMGWYRQAPGKERELVAAITRSGGRTYYADSVKGRFTISRDNAKNTVYLQMNSLKPEDTAVYYCAAVGPGRRRDYWGQGTQVTVSS | high polyreactivity
25 | QVQLVESGGGLVQAGGSLRLSCAASGITFYYYAMGWYRQAPGKERELVAAISTRDGNTYYADSVKGRFTISRDNAKNTVYLQMNSLKPEDTAVYYCAADYFRYYPYDYWGQGTQVTVSS | low polyreactivity
26 | QVQLVESGGGLVQAGGSLRLSCASSGITFPFYTMGWYRQAPGKERELVAAISSRGTSTYYADSVKGRFTISRDNAKNTVYLQMNSLKPEDTAVYYCKARATPQRAYDSWGQGTQVTVSS | high polyreactivity
27 | QVQLVASRGGLVQAGGILRLSSAASGSTFPSYEMGWYRQARGKERELVAAINSGRGSNYADSVKGRFTISRDNAKNTVYLQMNCLIPDDTAVYYCGISRYDYTNTEGGYWGQGTQVTVSS | low polyreactivity
28 | QVQLVESGGGLVQAGGSLRLSCAASGRTFGPYAMGWYRQAPGKERELVAAITDTGSGTYYADSVKGRFTISRDNAKNTVYIQMNSLKPEDTAVFYCNANYLSWYRYKYNYWGQGTQVTVSS | low polyreactivity
29 | QVQLVESGGGLVQAGGSLRLSCAASGFIFTYYAMGWYRQAPGKERELVAAISSRGGSTFYADSVKGRFTISRDNAKNTVYLQMNSLKPEDTAVYYCAADKWYAANQGYYYWGQGTQVTVSS | low polyreactivity
30 | QVQLVESGGGLVQAGGSLRLSCAASGNTINKYAMGWYRQAPGKERELVAAITRSGGSTYYADSVKGRFTISRDKAKNTVYLQMNSLKPEDTAVYYCAAAYWILYYPIDQAFDYWGQGTQVTVSS | low polyreactivity
31 | QVQLQESGDGLVQAVGSLRLSCAASGYISGKYYMGWYRKAPGNERGLLDGIDACGSRTNYADCVKGRFTISRDNAHNTVYLQMNSLKPEDTAVYYCAARPDGDRLFSYWGQGTQVPVSS | low polyreactivity
32 | QVQLVESGGGLVQAGGSLRLSCAASGSISFLYTMGWYRQAPGKERELVAAITGSTASTYYADSVKGCFTISRDNAKNTVYLQMNSLKPEDTAVYYCAAYWYAEGYWVSRDYWGQGTQVTVSS | low polyreactivity
33 | QVQLVESGGGLVQAGGSLRLSCAASGSIFYSNAMGWSRQAPGKEREFVAAISAGGGSTYYADSVKGRFTISRDNATNTVYLQMISLKPEDTAVYYCAADYFYPYYGAMDYWGQGTQVTVSS | low polyreactivity
34 | QVQLLESGGGLVQAGGSLRLSCAASGSTFYFNAMGWYSQAPGKDSELVAGIRYSGSSTYYADSVKGRFTISRDNAKNTVYLQMHSLKPEDTAVYYCAASLWRWRFSRFGYWGQGTQVTVSS | high polyreactivity
35 | QVQLVESGGGLVQAGGSLRLSCAASGSIFYYNTMGWYRQAPGKEREFVADISVIGGSTYYADSVKGRFTISRDNAKNTVYLQMNSLKPEDTAVYYCAARRYLRPHGLYGYWGQGSQVTVSS | low polyreactivity
36 | QVQLVESGGGLVQAGGSLRLSCAASGFIFSYYAMGWYRQAPGKERELVAAISRSGGSTYYADSVKGRFTISRDNAKNTVYLQMNSLKPEDTAVYYCAARYWRRYGQGYRYDYWGQGTQVTVSS | high polyreactivity
37 | QVQLVESGGGLVQAGGSLRLSCAASGLTFQSNAMGWSRQAPGKEREFVAAITSGGNTYYADSVKGRFTISRDNAKNTVYLQMNSLKPEDTAVYYCNADYQDEEDDYWGQGTQVTVSS | low polyreactivity
38 | QVQLVESGVGLVQAGGSLRLSCAASGSTFVKYVIGWYRQAPGKERELVAAISRSGGSTYYADSVKGRFTISRDNAKNTDYLQMNSLKPDDTAVYYCAARLFYRLDYRGGYYYWGQGTQVTVSS | high polyreactivity
39 | QVQLVESGGGLVQAGGSLRLSCAASGSIFRFYAMGWYRQAPGKERELVAGITWSGASTYYADSVKGRFTISRDNAKNTVYFQMNSLKPEDSAVYYCAAKSLIVRYDSWGQGTQVSVSS | high polyreactivity
40 | QVQLVESGGGLVQAGGSLRLSCAPSGRIFGAYGMGWYRQAPGKERELVAAISNGGRTSYADSVKGRFTISRDNAKNTVYLQLNSVKPEDTAVYYCAAVYWPWFGAYDYWGHGTQVTVSS | high polyreactivity
41 | QVPLVESGGGLVQAGGSLRLSCAASGRISGYYDMGWYRQAPGKERELVATITSDGGTNYADSVKGRFTISRDNAKNTVYLQMNSLKPEDTAVYYCAAYGWYTKWHFAFGYWGQGTQVTVSS | low polyreactivity
42 | QVQLVDSGGGLVQAGGSLRLSCAASGSILLYYTMGWYRPAPGKERELVATMSSSGGSTYYADSVKGRFTISRDNAKNTVYLQMNSLKPEDTAVYYCNADYIYYGTTYEYWGQGTQVTVSS | low polyreactivity
43 | QVQLVESGGGLVQAGGSLRLSCAASGSIFFYYAMGWYRQAPGKERELVAAINWSGVNTYYADSVKGRFTISRDNAKNTVYLQMNSLKPEDTAVYYCNAVVSLTSYGYLGYRFDYWGQGTQVTVSS | low polyreactivity
